Results taken from paper PMC9826837 (The Journal of Biological Chemistry, 2022).

Target: rat cardiac troponin I (cTnI), Ser22/23 bisphosphorylated (rat, UniProt P23693 1-211, phosphoserine at 22 and 23)
Experiment: SEC-MALS

stoichiometry N: 1
B1: rat cardiac troponin T (cTnT) (natural protein)
chain: not shown
